From paper PMC4866688, “Trypanosoma brucei DHFR-TS Revisited: Characterisation of a Bifunctional and Highly Unstable Recombinant Dihydrofolate Reductase-Thymidylate Synthase” (PLoS Neglected Tropical Diseases, 2016) come the findings set out here.

Substrate in this series: O=c1ccn([C@H]2C[C@H](O)[C@@H](COP(=O)(O)O)O2)c(=O)[nH]1
Briefly: Kinetic analysis of TS activity (substrates). The series is classed as biochemical, Trypanosoma brucei. Particulars: other: clarified E. coli lysate, spectrophotometric assay. The method, then: The initial characterisation of TS was also carried out using a spectrophotometric assay. Owing to the pronounced instability of the recombinant protein, clarified ThyA^- E. coli lysates were used for characterisation, where the concentration of TS was calculated based on DHFR activity. […] . Enzymatic reactions were initiated by the addition of CH2THF (200 μM, Shircks Laboratories) and initial rates of CH2THF oxidation to DHF monitored by the increase in absorbance at 340 nm (ε = 6,200 M^-1 cm^-1). This method is not suitable for determination of the Km^app for CH2THF and a radiometric method was used instead. This method measures the release of tritiated water from 5-[^3H]-dUMP (American Radiochemicals, 14.3 Ci mmol^-1). Assays (40 μl final volume) contained 200 nM TS and varying amounts of CH2THF (37.5 μM– 4.8 mM) in DHFR-assay buffer. Reactions were initiated by adding 200 μM [^3H]-dUMP (5.55 × 10^5 dpm nmol^-1) and stopped after 10 min by the addition of 20 μl trichloroacetic acid. Residual 5-[^3H]-dUMP was removed by the addition of 200 μl of 10% (w/v) activated charcoal (Sigma). Aliquots (100 μl) of the supernatants were added to 2 ml of scintillation fluid (Pico-Fluor 40™, Packard Bioscience) and radioactivity determined using a Beckmann LS 6500 Scintillation Counter. […] Protein concentrations were determined using the BioRad protein assay based on the method of Bradford. […]

B1: T. brucei TS (Tsf-TbDHFR-TS) (Trypanosoma brucei brucei) (protein)
chain: MLSLTRILRKKIPVHELAGKISRPPLRPFSVVVASDEKGGIGDGGTIPWEIPEDMQYFRRVTTNLRGKNVKPSPSKRNAVVMGRKTWDSLPPKFRPLSNRLNVVLSRSATKEQLLAGIPDPIKRAEAANDVVAVNGGLEDALRMLVSKEHTSSIETVFCIGGGTIYKQALCAPCVNVLQAIHRTVVRPASNSCSVFFDIPAAGTKTPEGLELVRESITDERVSTGAGGKKYQFEKLVPRNSEEEQYLNLVGRIIDEGCTKCDRTGVGTRSLFGAQMRFSLRNNRLPLLTTKRVFWRGVCEELLWFLRGETNAKLLSDKGIHIWDGNGSRAFLDSRGLTDYDEMDLGPVYGFQWRHFGADYISCKVDSEGKGVDQIANIVKSLIENPDDRRMICTAWNPAALPRMALPPCHMMAQFYVSNGELSCMLYQRSCDMGLGVPFNIASYALLTFLMAKASGLRPGELVHTLGDAHVYSNHVEPCRKQLKRVPRPFPFIVFKQDKEFLEDFQESDIEVIDYSPYPVISMEMAV
notes: The open reading frame of DHFR-TS was amplified by PCR from T. brucei gDNA using specific oligonucleotides; made in house; host or cells: thyA- E. coli derived from BL21 Star (DE3); unpurified clarified lysate
In general, Km refers to the concentration of substrate that gives half-maximal velocity. With B1, the Km came to 8.2 ± 0.6 µM.
